The values below come from PMC12527946 (2025).

Among the targets are Clu mutant CC3 (human, UniProt P10909 23-227; P10909 228-449); TL4; Clu mutant TL3 (human, UniProt P10909 23-227; P10909 228-449); Clu mutant DD3 (human, UniProt P10909 23-227; P10909 228-449); Clu mutant DD1 (human, UniProt P10909 23-227; P10909 228-449); Clu mutant DD2 (human, UniProt P10909 23-227; P10909 228-449).
Holding throughout (experiment): ELISA
On the technique in general: An ELISA detects its analyte on a solid surface through an enzyme-linked reagent.

Experiment [1] addresses VLDLR(28–797)Δ(751–779)-C-tag (VLDLR ectodomain) (human, UniProt P98155-2 28-797, Δ(751–779)).

B1: VLDLR(28–797)Δ(751–779)-C-tag (VLDLR ectodomain) (receptor)
chain: not shown
As to B1, the Kd (in general, the free concentration of one partner at which half of the binding sites on the other are occupied at equilibrium, for simple one-to-one binding) was determined as 109 nM in the experiment with Clu mutant CC3; 256 nM with TL4; 989 nM with Clu mutant TL3; 1180 nM with Clu mutant DD3; 137 nM with Clu mutant DD1; 1190 nM with Clu mutant DD2.

B2: Clu deletion mutant CC1 (natural protein)
chain 1: DQTVSDNELQEMSNQGSKYVNKEIQNAVNGVKQIKTLIEKTNEERKTLLSNLEEAKKKKEDALNETRESETKLKELPGVCNETMMALWEECKPCLKQTCMKFYARVCRSGSGLVGRQLEEFLNQSSPFYFWMNGDRIDSLLENDRQQTHMLDVMQDHFSRASSIIDELFQDRFFTREPQDTYHYLPFSLPHRRPHFFFPKSRIVR
chain 2: SLMPFSPYEPLNFHAMMDIHFHSPAFQHPPTEFIREGDDDRTVCREIRHNSTGCLRMKDQCDKCREILSVDCSTNNPSQAKLRRELDESLQVAERLTRKYNELLKSYQWKMLNTSSLLEQLNEQFNWVSRLANLTQGEDQYYLRVTTVASHTSDSDVPSGVTEVVVKLFDSDPITVTVPVEVSRKNPKFMETVAEKALQEYRKKHREE
modifications: deletion taken as helix α7 = 244-257 as printed; exact CC1 limits only in Fig. 3a; five interchain disulfides; six N-glycans Secreted from HEK293E, glycosylated, Ca2+-bound LDLR repeats, disulfides; C-terminal C-tag left out. Deletion 751-779 taken as printed, in the numbering of the long isoform
Turning to B2, in experiment [1], the Kd is 662 nM. This lies in the sub-micromolar range.
